Experimental data: patent US20030170222A1

Target: Melanocortin MC5 (human recombinant, HEK-293 cells) (human), P33032
Sequence (P33032 whole entry): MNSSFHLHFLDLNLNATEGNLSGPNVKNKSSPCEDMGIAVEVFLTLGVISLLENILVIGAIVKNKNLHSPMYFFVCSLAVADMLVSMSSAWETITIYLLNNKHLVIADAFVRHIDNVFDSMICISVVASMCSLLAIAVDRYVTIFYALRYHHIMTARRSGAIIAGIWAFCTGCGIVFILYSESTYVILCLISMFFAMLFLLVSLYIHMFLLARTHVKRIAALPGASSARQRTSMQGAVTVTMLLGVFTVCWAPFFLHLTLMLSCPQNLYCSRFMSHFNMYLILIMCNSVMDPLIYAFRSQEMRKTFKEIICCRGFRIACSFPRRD

Binder: SLWCVCPFRVCPPCH (modifications not checked) [β-Ge14.1-D1]
- % Inh.: 71%
- IC50: 294 nM
- Ki: 276 nM
